Experiments:
[1] = molecular target: T1, ARG2 (Homo sapiens, UniProt P78540); assay: T cell proliferation assay (BrdU, 96 hours) with exogenous ARG2, improved variant IgGs; format: cell-based; settings: In Absence of rhARG2; hIgG1; top conc 2 μM; n=2
T1 sequence (P78540 23-354): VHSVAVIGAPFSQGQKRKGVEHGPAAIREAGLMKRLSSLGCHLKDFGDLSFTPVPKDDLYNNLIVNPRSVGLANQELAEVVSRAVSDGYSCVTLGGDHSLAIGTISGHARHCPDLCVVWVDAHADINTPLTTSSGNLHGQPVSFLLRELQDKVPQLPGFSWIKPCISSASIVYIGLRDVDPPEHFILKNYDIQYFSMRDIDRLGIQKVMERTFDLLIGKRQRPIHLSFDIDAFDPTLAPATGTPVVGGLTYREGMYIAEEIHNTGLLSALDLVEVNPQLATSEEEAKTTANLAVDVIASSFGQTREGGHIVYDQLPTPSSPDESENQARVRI
Procedure: This assay served to provide evidence of improved functional efficacy for each affinity-matured antibody in comparison to the parent IgG, C0020187 (FIG. 12).
Lead optimisation clones were tested to an endpoint treatment time of 96 hours and the BrdU Cell Proliferation Kit (Roche, France; Cat: 11647229001) was used according to the manufacturer's instructions. R347 was used as the irrelevant control. All clones tested n=2.
Leukocyte cones underwent Ficoll Plaque (GE, Sweden; Cat: 17-1440-02) gradient separation, PBMC's were extracted and pan T cell population isolated by negative selection using the Human T Cell Enrichment Kit (Stemcell Technologies, France; Cat: 19051) according to the manufacturer's instructions.
40000 cells/well were seeded in complete growth media (RMPI 1640, 5% Human Serum Albumin) into a 96 well clear TC treated microplate (Greiner-Bio One, Germany; Cat: 655180). T cells were activated by the addition of ImmunoCult CD3/CD28 (Stemcell Technologies, France; Cat: 10971) at a dilution of 1:40 directly into wells and the plate incubated 37° C., 5% CO2 for 45 minutes.
To determine EC50's of test antibodies, a dilution series was created in sterile TBS/NaCl Buffer at 10× the final assay concentration added to the assay plate containing cells. Plate was incubated for 30 minutes at 37° C., 5% CO2.
ARG2 was added to relevant wells of the plate at a final concentration of 15 μg/ml. The equivalent volume of ARG2 vehicle and test antibody vehicle was added to relevant control wells. The total volume in each well was 200 μl. Cells were treated with test antibodies for a total of 96 hours at 37° C., 5% CO2. Antibodies were tested alongside C0020187 (parent IgG) as a positive control and R347 (irrelevant isotype control antibody) as a negative control.
Assessment of T cell proliferation was performed using the BrdU Cell Proliferation ELISA Kit (Roche, Germany; Cat: 000000011647229001). BrdU labelling reagent was added after 78 hours of antibody treatment and the plate further incubated for 18 hours at 37° C., 5% CO2. The remainder of the assay was performed according to the manufacturer's instructions.
Calculated data was expressed as % of control (Equation 3) and graphical plots were constructed using a four parameter fit and EC50's determined using model 205 in XLFit (IDBS, UK).
All test sample data was corrected for background (mean of no cell control)
% Control=100*((Test Sample−Mean Positive Control)/(Mean Negative Control−Mean Positive Control)) Equation 3:
Mean Positive Control=T Cells in absence of ARG2
Mean Negative Control=T Cells in presence of ARG2
This assay served to provide evidence of improved functional efficacy for each affinity-matured antibody in comparison to the parent IgG, C0020187 (FIG. 14, Table 19). R347 was used as the irrelevant control. All clones tested n=2. Reference section 2.9 for methodology.

[2] = molecular target: T2, human ARG1 (Homo sapiens, UniProt P05089); assay: Bio-Layer Interferometry (OctetRED) binding, human ARG1; settings: Fab analyte up to 120 nM, screening assay on anti-His surface
T2 construct: Avi tag (N); His10 (after a GGG linker) (C); made in house; host or cells: E. coli BL21 (DE3)
T2 sequence (P05089 with tags, fused parts or gaps): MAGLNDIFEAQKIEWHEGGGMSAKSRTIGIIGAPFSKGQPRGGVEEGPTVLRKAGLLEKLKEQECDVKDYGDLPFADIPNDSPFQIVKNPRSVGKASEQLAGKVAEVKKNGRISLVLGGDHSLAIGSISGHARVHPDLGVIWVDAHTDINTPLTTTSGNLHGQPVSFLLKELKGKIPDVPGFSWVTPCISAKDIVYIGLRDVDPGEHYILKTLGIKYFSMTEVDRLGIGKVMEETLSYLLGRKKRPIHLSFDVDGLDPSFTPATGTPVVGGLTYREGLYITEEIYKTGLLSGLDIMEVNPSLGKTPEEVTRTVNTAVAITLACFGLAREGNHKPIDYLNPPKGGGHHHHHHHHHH
Procedure: The affinity of binding between the Fab of C0020187 and human ARG2, cynomolgus ARG2 and human ARG1 was estimated using assays in which the biotinylated ARG antigen was captured on a streptavidin sensor tip. A fresh sensor tip was used for each measurement and no regeneration was used. A series of dilutions of the C0020187 Fab (3.25-240 nM) were individually placed in contact with the ligand surface for a sufficient amount of time to observe sensorgrams that could be fitted to an appropriate binding model with confidence (typically 5 minutes), followed by an appropriate length of dissociation time (typically 10 minutes). Blank reference (0 nM Fab) data were subtracted from each dataset to reduce the impact of any buffer artefacts or non-specific binding effects. An appropriate binding model was then fitted simultaneously to the data from each analyte titration using the Octet Evaluation software.
(§1) The binding of affinity-matured antibodies to human ARG1 was also tested on the OctetRED system using a screening assay which stably captures […] as the ligand on an anti-His surface. The Fabs were typically tested in an analyte range of 1.8 to 120 nM, with an association time of 5 minutes and a dissociation time of 10 minutes. Sensors were regenerated using 10 mM glycine pH 1.5 after each cycle.
as §1, with “Binding” for “The binding”, “the second-generation” for “affinity-matured”, “ARG” for “ARG1”, “were” for “were typically”, “as” for “in an”, “up” for “range of 1.8”

Molecule | EC50 [1] [nM] | Maximum % Proliferation [1] [%] | Results, binding to human ARG1 (BLI) [2]
C0021177: anti-ARG2 antibody, VH SEQ ID NO: 322, VL SEQ ID NO: 327 (antibody, listed as Homo sapiens, V domains shown, C0021177) VH: EVQLLESGGGLVQPGGSLRLSCAASGFTFRYEVAAWVRQAPGKGLEWVSAISGPAPKGYYADSVKGRFTISRDNSKNTLYLQMNSLRAEDTAVYYCARLRADLGLYMDLWGRGTLVTVSS VL: QSELTQPPTASAAPGQKVTISCSGSSSNIGNHYVSWYQQLPGTAPKLLIYDTTVLSSGIPDRFSGSKSGTSATLGITGLQTGDEADYYCGTWDELTSNLVFGGGTKLTVL | < 0.9 | 90 | No binding observed
C0021180: anti-ARG2 antibody, VH SEQ ID NO: 332, VL SEQ ID NO: 337 (antibody, listed as Homo sapiens, V domains shown, C0021180) VH: EVQLLESGGGLVQPGGSLRLSCAASGFTFRYEVAAWVRQAPGKGLEWVSAISGPIPKGYYADSVKGRFTISRDNSKNTLYLQMNSLRAEDTAVYYCARLRADLGLYMDLWGRGTLVTVSS VL: QSVLTQPPTVSAAPGRKVTISCSGSSSNIGDHHVSWYQQLPGAAPKLLIYDTDHMASGIPDRFSGSRSGTSATLGITGLQTGDEADYYCGTWDSSLSALVFGGGTKLTVL | < 0.9 | 96 | No binding observed

Source: patent US20220403048A1, “BINDING MOLECULES TO ARGINASE II [ARG2]” (Cancer Research Technology Limited, priority 2019, published 2022)
